Data on twelve molecules can be found in US20260234242A1 (HAINAN SIMCERE ZAIMING PHARMACEUTICAL, published 2026).

Residue numbers refer to the chain shown, from its start. Read-outs that look alike come from different tables or passages of the source.

Test [1] has as its target T1, human CDH6 on tumor cells (OVCAR3 cells, PA-1 cells) (human, UniProt P55285 54-790).
T1 sequence: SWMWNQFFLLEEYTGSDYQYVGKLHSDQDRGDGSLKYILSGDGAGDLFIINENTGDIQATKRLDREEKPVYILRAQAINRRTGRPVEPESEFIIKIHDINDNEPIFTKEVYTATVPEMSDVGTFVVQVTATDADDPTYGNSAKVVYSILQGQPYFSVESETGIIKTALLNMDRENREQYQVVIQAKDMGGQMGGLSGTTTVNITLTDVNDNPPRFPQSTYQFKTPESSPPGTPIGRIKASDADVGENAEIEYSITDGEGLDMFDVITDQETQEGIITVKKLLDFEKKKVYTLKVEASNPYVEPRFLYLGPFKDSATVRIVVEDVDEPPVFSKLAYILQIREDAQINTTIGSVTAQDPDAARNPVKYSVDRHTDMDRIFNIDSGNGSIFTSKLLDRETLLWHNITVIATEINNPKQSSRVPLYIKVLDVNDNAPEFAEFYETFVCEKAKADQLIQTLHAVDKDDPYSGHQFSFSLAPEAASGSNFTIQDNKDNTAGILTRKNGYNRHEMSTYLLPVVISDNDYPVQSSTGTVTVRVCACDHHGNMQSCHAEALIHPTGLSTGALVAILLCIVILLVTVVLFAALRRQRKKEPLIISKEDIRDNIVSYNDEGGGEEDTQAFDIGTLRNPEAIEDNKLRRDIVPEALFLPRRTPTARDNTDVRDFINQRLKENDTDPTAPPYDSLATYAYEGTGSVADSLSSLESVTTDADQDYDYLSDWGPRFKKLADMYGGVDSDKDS
Briefly: FACS, OVCAR3 cells. How it is done:
(§1) OVCAR3 cells with high expression of CDH6 and PA-1 cells with moderate expression of CDH6 were used to detect the binding activity of the antibodies to the cells. […] The cells were washed once with PBS, counted, resuspended to 2×10⁶ cells/mL in an FACS buffer (PBS+2% FBS), and then added to a 96-well plate at 50 μL/well. The chimeric antibodies were diluted with FACS buffer (PBS+2% FBS) and added to the 96-well plate at 50 μL/well, and the plate was incubated at 4° C. for 1 h. […] The dilution was added to the 96-well plate at 50 μL/well, and the plate was incubated at 4° C. for 1 h. After the plates were centrifuged and washed 2 times with PBS, the cells were resuspended in an FACS buffer. The mean fluorescence intensity (MFI) was measured using FACS Canton II (BD). Analysis was performed by the GraphPad Prism software, data were fitted, and EC50 values were calculated. The chimeric antibodies tested had strong binding to both OVCAR3 cells and PA-1 cells.
(§2) According to the above sequences, heavy chain (HC) and light chain (LC) plasmids were constructed (the nucleic acid sequences encoding the VH and VL of the antibodies were recombined into an expression vector carrying a signal peptide (SEQ ID NO: 132, […]) and a heavy chain constant region/light chain constant region sequence to obtain recombinant plasmids expressing VH—CH1-Fc/VL-CL). According to the expression and purification methods in Example 2, the hCDH6-6 humanized antibodies were obtained, and the binding activity of the humanized antibodies was detected by ELISA and FACS (see 2.2 and 2.3 for the method).
(In flow cytometry, cells or beads pass a laser one at a time.)

Test [2] has as its target T2, his-tagged human CDH6 extracellular region protein (hCDH6 ECD-his) (human, UniProt P55285 19-615).
T2 construct: also called Human CDH6-his; hCDH6-his; not shown: his tag
T2 sequence: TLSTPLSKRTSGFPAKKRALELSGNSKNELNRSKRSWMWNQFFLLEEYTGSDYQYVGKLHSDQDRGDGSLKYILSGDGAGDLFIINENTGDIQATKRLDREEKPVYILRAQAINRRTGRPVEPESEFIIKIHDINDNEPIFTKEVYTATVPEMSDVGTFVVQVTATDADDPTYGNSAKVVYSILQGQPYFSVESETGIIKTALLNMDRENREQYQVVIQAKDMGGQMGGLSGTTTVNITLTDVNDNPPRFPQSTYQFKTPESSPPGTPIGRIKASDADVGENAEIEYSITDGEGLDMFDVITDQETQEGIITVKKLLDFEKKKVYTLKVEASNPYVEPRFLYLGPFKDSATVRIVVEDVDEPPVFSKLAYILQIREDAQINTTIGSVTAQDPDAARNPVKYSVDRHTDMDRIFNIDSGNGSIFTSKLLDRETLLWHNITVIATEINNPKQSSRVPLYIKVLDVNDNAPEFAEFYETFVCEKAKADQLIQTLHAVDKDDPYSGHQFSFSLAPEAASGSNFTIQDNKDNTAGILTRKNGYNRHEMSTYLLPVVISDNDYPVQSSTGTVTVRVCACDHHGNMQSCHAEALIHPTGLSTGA
As to the kind of experiment: ELISA, coated antigen. On the procedure:
(§3) Human CDH6 protein (hCDH6 ECD-his, conventionally synthesized), monkey CDH6 protein (cynoCDH6 ECD-his, conventionally synthesized; the cynoCDH6 ECD sequence was derived from Uniprot #A0A2K5TW62 (19-615)), and murine CDH6 protein (mCDH6 ECD-his, conventionally synthesized; the mCDH6 ECD sequence was derived from Uniprot #P97326 (19-615)) were diluted with PBS to a final concentration of 1 μg/mL, and added to a 96-well ELISA plate at 100 μL/well. The plate was incubated at 4° C. overnight. The next day, the plate was washed 3 times with a plate washing solution (PBS+0.01% (v/v) Tween 20), and a blocking buffer (PBS+0.01% (v/v) Tween 20+2% (w/w) BSA) was added for blocking at room temperature for 2 h. The blocking buffer was discarded, and the plate was washed 3 times. The chimeric antibodies were diluted with 1% BSA+PBS (purchased from Cytiva, Cat. No. SH30264.01) and added to the 96-well plate at 50 μL/well. After incubation at 37° C. for 2 h, the plate was washed 3 times with a plate washing solution. […] The plate was incubated at 37° C. for 1 h and then washed 5 times with a plate washing solution. A TMB substrate (purchased from Seracare, Cat. No. 5120-0077) was added at 50 μL/well and incubated at room temperature for 10 min, then a stop solution (1.0 N HCl) was added at 50 μL/well. OD450 nm values were read using a microplate reader (Biotek). Analysis was performed by the GraphPad Prism software, data were fitted, and EC50 values were calculated. The chimeric antibodies tested all had strong binding to the human CDH6 protein, the monkey CDH6 protein, and the murine CDH6 protein.
According to the above sequences, heavy chain (HC) and light chain (LC) plasmids were constructed (the nucleic acid sequences encoding the VH and VL of the antibodies were recombined into an expression vector carrying a signal peptide (SEQ ID NO: 132, […]) and a heavy chain constant region/light chain constant region sequence to obtain recombinant plasmids expressing VH—CH1-Fc/VL-CL).

The target of test [3] is T1, human CDH6 on tumor cells (OVCAR3 …). Briefly: FACS, PA-1 cells. How it is done:
as §1
as §2, with “VH-CH1-Fc/VL-CL).” for “VH—CH1-Fc/VL-CL).”, “hCDH6-14” for “hCDH6-6”

The target in test [4] is T2, his-tagged human CDH6 extracellular …. As to the kind of experiment: ELISA, coated antigen. On the procedure:
as §3
According to the above sequences, heavy chain (HC) and light chain (LC) plasmids were constructed (the nucleic acid sequences encoding the VH and VL of the antibodies were recombined into an expression vector carrying a signal peptide (SEQ ID NO: 132, […]) and a heavy chain constant region/light chain constant region sequence to obtain recombinant plasmids expressing VH-CH1-Fc/VL-CL).
This is another data set of the same source. For orientation: ELISA stands for enzyme-linked immunosorbent assay.

Broadly, the EC50 is the concentration at which the effect is half-maximal. High values mean weaker potency, low ones greater potency.

B1: hCDH6-6-H1L3 (antibody, V domains shown)
VH: EVQLVQSGAEVKKPGASVKVSCKASGYTFTDYYMAWVRQAPGQGLEWMGYIFPNSGGTDYSQKFKGRVTMTVDKSTSTVYMELSSLRSEDTAVYYCARELGADYGDYYAMDHWGQGTTVTVSS
VL: DIQMTQSPSSLSASVGDRVTITCRASENIDSYLAWYQQKPGKSPQLLVYSATLLADGVPSRFSGSGSGTDYTLTISSLQPEDFATYYCQHYYRTPPTFGQGTKLEIK
notes: Humanized
As for B1, in test [1], the half-maximal effective concentration (EC50) was found to be 0.63 nM and the “Max MFI” value was found to be 13800 MFI. For the same molecule, in test [2], the EC50 amounted to 0.031 nM and the “Max OD450” value is 1.99 OD450.

B2: hCDH6-6-H1L5 (antibody, V domains shown)
VH: B1 VH
VL: DIVMTQSPLSLPVTPGEPASISCRASENIDSYLAWYLQKPGKSPQLLVYSATLLADGVPDRFSGSGSGTDFTLKISRVEAEDVGVYYCQHYYRTPPTFGQGTKLEIK
notes: Humanized
For B2, in test [1], the response was half-maximal at 0.61 nM (EC50) and the “Max MFI” value is 14200 MFI. Besides, in test [2], the EC50 was determined as 0.031 nM and the “Max OD450” value stood at 2.06 OD450.

B3: hCDH6-6-H2L3 (antibody, V domains shown)
VH: B1 VH with M70L
VL: B1 VL
notes: Humanized
With B3, in test [1], it took 0.57 nM to reach a half-maximal effect (EC50) and the “Max MFI” value came out at 14100 MFI. Besides, in test [2], the 50% effective concentration (EC50) is 0.025 nM and the “Max OD450” value worked out at 2.09 OD450.

B4: hCDH6-6-H1L4 (antibody, V domains shown)
VH: B1 VH
VL: B1 VL with Q45K, T85R
notes: Humanized; also called hCDH6-6-HIL4
On to B4, for which, in test [1], the EC50 stood at 0.64 nM and the “Max MFI” value stood at 14400 MFI. Also, in test [2], a half-maximal effect (EC50) was put at 0.021 nM and the “Max OD450” value came out at 2.16 OD450.

B5: hCDH6-6-H2L5 (antibody, V domains shown)
VH: B1 VH with M70L
VL: B2 VL
notes: Humanized
As to B5, in test [1], the half-maximal effective concentration (EC50) was 0.64 nM and the “Max MFI” value stood at 14600 MFI. In test [2], the EC50 worked out at 0.026 nM and the “Max OD450” value is 2.1 OD450.

B6: hCDH6-6-H2L4 (antibody, V domains shown)
VH: B1 VH with M70L
VL: B1 VL with Q45K, T85R
notes: Humanized
Consider B6, for which, in test [1], the response was half-maximal at 0.62 nM (EC50) and the “Max MFI” value was 14300 MFI. Moreover, in test [2], the midpoint of the response, the EC50, lay at 0.029 nM and the “Max OD450” value worked out at 2.14 OD450.

B7: hCDH6-6-H3L4 (antibody, V domains shown)
VH: B1 VH with G42R
VL: B1 VL with Q45K, T85R
notes: Humanized
B7: in test [1], the midpoint of the response, the EC50, lay at 0.7 nM and the “Max MFI” value was found to be 14500 MFI. Further, in test [2], the EC50 was 0.041 nM and the “Max OD450” value came out at 2.05 OD450.

B8: hCDH6-6-H3L3 (antibody, V domains shown)
VH: B1 VH with G42R
VL: B1 VL
notes: Humanized
Take B8: in test [1], a half-maximal effect (EC50) was put at 0.74 nM and the “Max MFI” value turned out to be 14300 MFI. Also, in test [2], the half-maximal effective concentration (EC50) was found to be 0.031 nM and the “Max OD450” value is 2 OD450.

B9: hCDH6-6-H3L2 (antibody, V domains shown)
VH: B1 VH with G42R
VL: B1 VL with Q45K
notes: Humanized
For B9, in test [1], the EC50 worked out at 0.85 nM and the “Max MFI” value was determined as 14600 MFI. For the same molecule, in test [2], the midpoint of the response, the EC50, lay at 0.03 nM and the “Max OD450” value amounted to 2.09 OD450.

B10: hCDH6-6-H3L1 (antibody, V domains shown)
VH: B1 VH with G42R
VL: B1 VL with Q45K, V48L
notes: Humanized
Turning to B10, in test [1], the EC50 worked out at 0.87 nM and the “Max MFI” value was found to be 13700 MFI. In test [2], it took 0.05 nM to reach a half-maximal effect (EC50) and the “Max OD450” value turned out to be 2.02 OD450.

B11: hCDH6-14-H4L3 (antibody, V domains shown)
VH: EVQLVQSGAEVKKPGASVKVSCKASGYTFTDNYINWVRQAPGQGLEWMGWIYPGTGNSYYNEKFKGRVTITVDTSASTAYMELSSLRSEDTAVYYCASSYGDSFDYWGQGTTVTVSS
VL: DIVMTQSPDSLAVSLGERATINCRASQDIRNYLNWYQQKPGQTPKLLISYTSRLHSGVPDRFSGSGSGTDFTLTISSLQAEDVAVYYCQQYSQLPWTFGGGTKVEIK
notes: Humanized
With B11, in test [3], a half-maximal response (EC50) required 0.27 nM and the “Max MFI” value stood at 3870 MFI. Further, in test [4], the EC50 came out at 0.084 nM and the “Max OD450” value turned out to be 2.67 OD450.

B12: hCDH6-14-H5L3 (antibody, V domains shown)
VH: B11 VH with V5Q, G44R
VL: B11 VL
notes: Humanized
As for B12, in test [3], the EC50 worked out at 0.21 nM and the “Max MFI” value came out at 3600 MFI. Besides, in test [4], a half-maximal response (EC50) required 0.092 nM and the “Max OD450” value was 2.72 OD450.
